Measurements as given in publication PMC8440579.

Biological target: YukE with nsAA 2 (p-azidophenylalanine) incorporated at position 44, YukE(W44TAG) (B. subtilis) (UniProt C0SP85)
Assay: cross-linking; in vivo photo-crosslinking through p-azidophenylalanine (nsAA 2) in B. subtilis cells resuspended in 1x PBS, UV 365 nm for 15 min or 60 min on ice; lysates on 17% SDS-PAGE without reductant, anti-YukE immunoblot

- crosslinking efficiency: 100%
- stoichiometry N: 2
Substance: YukE with nsAA 2 (p-azidophenylalanine) incorporated at position 44, YukE(W44TAG) (from UniProt C0SP85 1-97) (natural protein)
